Source: publication PMC6658569

Tested on: PurR (Escherichia coli K12?)
Experiment: MST
Conditions: panel assigned by order of figure text (h before i); EMSA: binding buffer 250 mM Tris pH 6.8, 150 mM NaCl, 5 mM EDTA, 10 mM DTT, 50% glycerol; 8% PAGE in 20 mM Tris-borate, 1 mM EDTA pH 8.0, 4 C, 80 V, EB stain …

Substance | Kd [µM]
glyA promoter (212 bp) | 239
kbl promoter (208 bp) | 7.11
